Data reported in US20150344570A1 (published 2015).

T1: FcγRIIa H (human, UniProt P12318 34-217)
T1 construct: extracellular domain; also called FcgRIIa H; 2aH; not shown: His tag attached to the C terminus
T1 sequence (looked up): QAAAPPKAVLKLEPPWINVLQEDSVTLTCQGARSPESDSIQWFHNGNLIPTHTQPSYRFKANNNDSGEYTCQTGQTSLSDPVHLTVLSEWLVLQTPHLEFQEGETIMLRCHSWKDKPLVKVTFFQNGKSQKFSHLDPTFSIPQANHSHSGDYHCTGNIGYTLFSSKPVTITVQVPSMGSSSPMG

T2: FcγRIIb (human, UniProt P31994 43-217)
T2 construct: extracellular domain; also called FcgRIIb; 2b; not shown: His tag attached to the C terminus
T2 sequence (looked up): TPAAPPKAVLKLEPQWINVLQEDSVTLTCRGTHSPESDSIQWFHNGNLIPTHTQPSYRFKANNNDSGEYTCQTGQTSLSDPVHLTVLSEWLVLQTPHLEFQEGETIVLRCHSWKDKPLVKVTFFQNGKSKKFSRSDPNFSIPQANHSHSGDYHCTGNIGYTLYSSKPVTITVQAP

T3: FcγRIIa H (human, UniProt P12318 34-217)
T3 construct: extracellular domain; also called FcgRIIa H; FcγRIIa type H
T3 sequence (looked up): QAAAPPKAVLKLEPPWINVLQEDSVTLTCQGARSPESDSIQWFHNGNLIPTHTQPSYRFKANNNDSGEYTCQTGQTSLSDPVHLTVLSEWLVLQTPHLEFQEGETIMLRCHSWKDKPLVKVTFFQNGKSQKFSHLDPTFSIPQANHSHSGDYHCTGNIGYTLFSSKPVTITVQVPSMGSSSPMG

T4: FcγRIIb (human, UniProt P31994 43-217)
T4 construct: extracellular domain; also called FcgRIIb; 2b
T4 sequence (looked up): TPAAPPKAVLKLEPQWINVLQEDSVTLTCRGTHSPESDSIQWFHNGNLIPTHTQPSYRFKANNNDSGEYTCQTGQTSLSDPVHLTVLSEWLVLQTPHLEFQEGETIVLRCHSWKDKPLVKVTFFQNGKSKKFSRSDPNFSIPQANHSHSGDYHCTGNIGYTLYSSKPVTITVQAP


Tests used:
FcγRIIa H [1] = target: T1, FcγRIIa H; assay: SPR; He/Con for FcγRIIa H divided by He/Con for FcγRIIb
FcγRIIa H [2] = target: T1, FcγRIIa H; assay: SPR (Biacore), antibody captured on antigen peptide chip, FcγR as analyte; relative binding activity
Protocol: (§1) The heterodimerized antibodies He Abs in which one of the H chains was introduced with an alteration were assayed for their binding activities to each activating FcγR and inhibitory FcγR according to the method described in Example 4. […] The activating FcγRs in FIGS. 26, 27, 28, and 29 are FcγRIa, FcγRIIa (R), FcγRIIa (H), and FcγRIIIa, respectively.
(§2) Analysis of interaction between objective antibody and the FcγR was carried out using Biacore T100 (GE Healthcare). HBS-EP+ (GE Healthcare) was used as the running buffer, and the measurement temperature was set to 25° C. Chips produced by immobilizing the antigen peptide by the amine coupling method to a Series S Sencor Chip CM5 (GE Healthcare), or alternatively, chips produced by allowing preliminarily biotinylated antigen peptides to interact with and immobilize onto a Series S Sensor Chip SA (certified) (GE Healthcare) were used. Antibodies of interest were captured onto an antigen peptide-immobilized chip, and allowed to interact to each FcγR diluted with running buffer. To regenerate and repeatedly use the chip, the antibodies captured on the chip were washed off by reacting 10 mM glycine-HCl, pH 1.5.

FcγRIIb [3] = target: T2, FcγRIIb; assay: as above
Protocol: as §1, §2

FcγRIIa H [4] = target: T3, FcγRIIa H; assay: SPR (Biacore); He/Con_2aH divided by He/Con_2b (FcγRIIa H over FcγRIIb)
FcγRIIa H [5] = target: T3, FcγRIIa H; assay: SPR (Biacore), antibody captured, FcγR analyte; binding relative to GpH7-A5/GpH7-B3/GpL16-k0 = 100
FcγRIIb [6] = target: T4, FcγRIIb; assay: as above

Row | Binder | He_2aH/2b (IIaH/IIb) (FcγRIIa H [1]) | He/Con_2aH (FcγRIIa H [2]) | He/Con_2b (FcγRIIb [3]) | He_2aH/2b (IIaH/IIb) (FcγRIIa H [4]) | He/Con_2aH (FcγRIIa H [5]) | He/Con_2b (FcγRIIb [6])
1 | GpH7-A5/GpH7-B3 variant V266_05P/GpL16-k0 (antibody, human IgG1, kappa, Heterodimerized anti-glypican-3 IgG1; mutation in one H chain only; also called He Ab) heavy 1: not shown heavy 2: not shown light: DIVMTQSPLSLPVTPGEPASISCQASESLVHSNRNTYLHWYLQKPGQSPQLLIYKVSNRFSGVPDRFSGSGSGTDFTLKISRVEAEDVGVYYCSQNTHVPPTFGQGTKVEIERTVAAPSVFIFPPSDEQLKSGTASVVCLLNNFYPREAKVQWKVDNALQSGNSQESVTEQDSKDSTYSLSSTLTLSKADYEKHKVYACEVTHQGLSSPVTKSFNRGEC | 1.91 ratio | 0.7 % of GpH7-A5/GpH7-B3/GpL16-k0 (=100) | 0.4 % of GpH7-A5/GpH7-B3/GpL16-k0 (=100) | – | – | –
2 | GpH7-A5/GpH7-B3 variant G237_02A/GpL16-k0 (antibody, human IgG1, kappa, Heterodimerized antibody, alteration in one H chain only; also called He Ab G237A) heavy 1: not shown heavy 2: not shown light: DIVMTQSPLSLPVTPGEPASISCQASESLVHSNRNTYLHWYLQKPGQSPQLLIYKVSNRFSGVPDRFSGSGSGTDFTLKISRVEAEDVGVYYCSQNTHVPPTFGQGTKVEIERTVAAPSVFIFPPSDEQLKSGTASVVCLLNNFYPREAKVQWKVDNALQSGNSQESVTEQDSKDSTYSLSSTLTLSKADYEKHKVYACEVTHQGLSSPVTKSFNRGEC | – | – | – | 0.27 ratio | 34 % of control | 124 % of control
3 | GpH7-A5/GpH7-B3 variant G237_14T/GpL16-k0 (antibody, human IgG1, kappa, Heterodimerized antibody, alteration in one H chain only; also called He Ab G237T) heavy 1: not shown heavy 2: not shown light: DIVMTQSPLSLPVTPGEPASISCQASESLVHSNRNTYLHWYLQKPGQSPQLLIYKVSNRFSGVPDRFSGSGSGTDFTLKISRVEAEDVGVYYCSQNTHVPPTFGQGTKVEIERTVAAPSVFIFPPSDEQLKSGTASVVCLLNNFYPREAKVQWKVDNALQSGNSQESVTEQDSKDSTYSLSSTLTLSKADYEKHKVYACEVTHQGLSSPVTKSFNRGEC | – | – | – | 0.58 ratio | 31.8 % of control | 54.8 % of control
4 | GpH7-A5/GpH7-B3 variant G237_03V/GpL16-k0 (antibody, human IgG1, kappa, Heterodimerized antibody, alteration in one H chain only; also called He Ab G237V) heavy 1: not shown heavy 2: not shown light: DIVMTQSPLSLPVTPGEPASISCQASESLVHSNRNTYLHWYLQKPGQSPQLLIYKVSNRFSGVPDRFSGSGSGTDFTLKISRVEAEDVGVYYCSQNTHVPPTFGQGTKVEIERTVAAPSVFIFPPSDEQLKSGTASVVCLLNNFYPREAKVQWKVDNALQSGNSQESVTEQDSKDSTYSLSSTLTLSKADYEKHKVYACEVTHQGLSSPVTKSFNRGEC | – | – | – | 0.64 ratio | 39.4 % of control | 61.4 % of control
5 | GpH7-A5/GpH7-B3 variant G237_12R/GpL16-k0 (antibody, human IgG1, kappa, Heterodimerized antibody, alteration in one H chain only; also called He Ab G237R) heavy 1: not shown heavy 2: not shown light: DIVMTQSPLSLPVTPGEPASISCQASESLVHSNRNTYLHWYLQKPGQSPQLLIYKVSNRFSGVPDRFSGSGSGTDFTLKISRVEAEDVGVYYCSQNTHVPPTFGQGTKVEIERTVAAPSVFIFPPSDEQLKSGTASVVCLLNNFYPREAKVQWKVDNALQSGNSQESVTEQDSKDSTYSLSSTLTLSKADYEKHKVYACEVTHQGLSSPVTKSFNRGEC | – | – | – | 0.76 ratio | 7.5 % of control | –
6 | GpH7-A5/GpH7-B3 variant G237_04F/GpL16-k0 (antibody, human IgG1, kappa, Heterodimerized antibody, alteration in one H chain only; also called He Ab G237F) heavy 1: not shown heavy 2: not shown light: DIVMTQSPLSLPVTPGEPASISCQASESLVHSNRNTYLHWYLQKPGQSPQLLIYKVSNRFSGVPDRFSGSGSGTDFTLKISRVEAEDVGVYYCSQNTHVPPTFGQGTKVEIERTVAAPSVFIFPPSDEQLKSGTASVVCLLNNFYPREAKVQWKVDNALQSGNSQESVTEQDSKDSTYSLSSTLTLSKADYEKHKVYACEVTHQGLSSPVTKSFNRGEC | – | – | – | 0.28 ratio | 41.4 % of control | 149 % of control
7 | GpH7-A5/GpH7-B3 variant G237_11K/GpL16-k0 (antibody, human IgG1, kappa, Heterodimerized antibody, alteration in one H chain only; also called He Ab G237K) heavy 1: not shown heavy 2: not shown light: DIVMTQSPLSLPVTPGEPASISCQASESLVHSNRNTYLHWYLQKPGQSPQLLIYKVSNRFSGVPDRFSGSGSGTDFTLKISRVEAEDVGVYYCSQNTHVPPTFGQGTKVEIERTVAAPSVFIFPPSDEQLKSGTASVVCLLNNFYPREAKVQWKVDNALQSGNSQESVTEQDSKDSTYSLSSTLTLSKADYEKHKVYACEVTHQGLSSPVTKSFNRGEC | – | – | – | 0.64 ratio | 5.8 % of control | 9 % of control
